Biological target: T1, BACE2 (Homo sapiens, UniProt Q9Y5Z0)
T1 construct: purchased R&D Systems
T1 sequence (Q9Y5Z0 63-518): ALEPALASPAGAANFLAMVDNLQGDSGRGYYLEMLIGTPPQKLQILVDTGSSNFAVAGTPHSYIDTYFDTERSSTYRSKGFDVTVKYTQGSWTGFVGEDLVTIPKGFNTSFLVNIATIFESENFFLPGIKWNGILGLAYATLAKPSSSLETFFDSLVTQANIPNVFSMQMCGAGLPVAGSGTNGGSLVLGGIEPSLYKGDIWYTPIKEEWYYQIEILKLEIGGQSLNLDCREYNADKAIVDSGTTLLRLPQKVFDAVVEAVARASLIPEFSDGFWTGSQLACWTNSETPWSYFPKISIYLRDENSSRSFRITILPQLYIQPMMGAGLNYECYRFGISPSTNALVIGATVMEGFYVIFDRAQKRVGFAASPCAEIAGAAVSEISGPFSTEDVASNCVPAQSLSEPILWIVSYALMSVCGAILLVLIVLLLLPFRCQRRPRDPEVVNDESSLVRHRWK
Assay: Cleavage of biotinylated Aβ by BACE2, immunoprecipitation/mass spectrometry (IP/MS)
Assay type: biochemical
Settings: peptide 300 nM, BACE2 5 nM, within 1 h; 25 mM acetate buffer pH 4.0, 0.1% BSA; product Aβ34; SELDI-TOF MS
Experimental: We next investigated which peptide bond(s) within Aβ are hydrolyzed by BACE2 and BACE1. To that end, we co-incubated N-terminally biotinylated Aβ40 or Aβ42 (300nM) with BACE2 (5 nM) and analyzed the products by immunoprecipitation/mass spectrometry (IP/MS) (see Methods). […] To test whether any additional cleavages can occur, we incubated N-terminally biotinylated Aβ40 (300 nM) with a larger amount of BACE2 (25 nM) for 1 and 24 h. At these higher concentrations and longer incubation times, Aβ19 and Aβ20 were the principal N-terminal fragments remaining at the end of the reaction (Figure 3E-F).
The cleavage sites within Aβ40 and Aβ42 hydrolyzed by BACE2 and BACE1 were determined essentially as described with minor modifications. Briefly, Aβ peptides or biotinylated Aβ peptides were incubated for various lengths of time with recombinant BACE2 enzyme in Assay Buffer (25 mM acetate buffer, pH 4.0, supplemented with 0.1% BSA). The reaction was stopped by addition of protease inhibitor cocktail and pH adjustment. Aβ fragments were immediately precipitated by magnetic beads coated with streptavidin (for biotinylated Aβ) or magnetic beads coated with Ab9 antibody (for unmodified Aβ). […] Digested products were spotted onto a gold chip, dried, and analyzed using a Ciphergen ProteinChip SELDI time-of-flight system (Bio-Rad). […]

| Substance | extent of hydrolysis by BACE2 |
| --- | --- |
| N-terminally biotinylated Aβ40: Aβ40 biotinylated at the N-terminus, substrate for IP/MS | almost completely hydrolyzed |
| N-terminally biotinylated Aβ42: Aβ42 biotinylated at the N-terminus, substrate for IP/MS | almost completely hydrolyzed |

Reference: publication PMC3470943, “Identification of BACE2 as an avid ß-amyloid-degrading protease” (Molecular Neurodegeneration, 2012)
